Data published in patent publication US20240002495A1 (MITSUBISHI TANABE PHARMA, published 2024).

Experiments:
[1] = biological target: T1, recombinant human IL-33 protein (residues 112 to 270) (ILC0701, ATGen Co. Ltd) (human, UniProt O95760 112-270); assay: cell-based or functional assay
T1 sequence: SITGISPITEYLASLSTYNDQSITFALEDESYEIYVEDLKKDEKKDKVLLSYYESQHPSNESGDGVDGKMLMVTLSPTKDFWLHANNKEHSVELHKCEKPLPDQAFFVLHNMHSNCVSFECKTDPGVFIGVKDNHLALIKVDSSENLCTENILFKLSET

[2] = biological target: T2, 6His-AviTag-linked cynomolgus monkey IL-33 (residues 112 to 269) (cynomolgus monkey, UniProt O95760 112-269 (human entry), biotin on the AviTag portion (BirA) in the SPR of Example 7; used without biotinylation in Example 10); assay: cell-based or functional assay
T2 chain: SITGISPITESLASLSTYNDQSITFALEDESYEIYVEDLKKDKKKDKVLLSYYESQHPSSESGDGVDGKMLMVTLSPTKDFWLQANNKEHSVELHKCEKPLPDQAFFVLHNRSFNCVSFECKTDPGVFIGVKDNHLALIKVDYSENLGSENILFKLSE

[3] = biological target: T1, recombinant human IL-33 protein …; assay: KinExA in PBS, neutral-purified IgG
Description: Each test antibody (IgG) (“antibody (IgG)” indicates an antibody having a molecular form of IgG; hereinafter, the same representation is used) was analyzed to confirm the affinity with the human IL-33 protein by measuring dissociation constant (Kd) between each test antibody and the human IL-33 protein in PBS by kinetic exclusion assay (KinExA) (KinExA3200, available from Sapidyne Instruments, Inc.). Mixture samples of a test antibody and a human IL-33 protein (ILC0701, available from ATGen Co. Ltd) were prepared. The human IL-33 protein was titrated to a constant concentration of test antibody (final concentration: several tens of pM to several hundreds of pM) over a wide concentration range of the human IL-33 protein (so that it covered the concentrations of the human IL-33 protein resulting from 12-step serial doubling dilutions, i.e. one- to 2048-fold, with the upper limit of final concentration set to several nM to several tens of nM). The mixture samples were incubated at a room temperature until the antigen-antibody reaction reached equilibrium. After the reaction reached equilibrium, the percentage of free anti-IL-33 antibody in each sample was analyzed using KinExA3200. The values of Kd were calculated by fitting the plot of percentages of anti-IL-33 antibody not bound to the human IL-33 protein (vertical axis) and concentrations of antigen (horizontal axis) to a theoretical formula, using a KinExA data analysis program (KinExA Pro Software v3.5.3, available from Sapidyne Instruments, Inc.). Beads for capturing the anti-IL-33 antibody were prepared by suspending 50 mg of Azlactone beads (Sapidyne) in 1 mL of coating solution (10 μg/mL human IL-33 protein (ILC0701, available from ATGen Co. Ltd), 50 mM sodium carbonate at pH of 9.6) and incubating the solution at a room temperature for one hour. The antibody for detection used was anti-human F(ab)′2-DyLight649 (Jackson, 309-495-006).

[4] = biological target: T1, recombinant human IL-33 protein …; assay: KinExA in PBS, alkaline-purified IgG
Description: (§1) Mixture samples of a test antibody and a human IL-33 protein (ILC0701, available from ATGen Co. Ltd) were prepared. The human IL-33 protein was titrated to a constant concentration of test antibody (final concentration: several tens of pM to several hundreds of pM) over a wide concentration range of the human IL-33 protein (so that it covered the concentrations of the human IL-33 protein resulting from 12-step serial doubling dilutions, i.e. one- to 2048-fold, with the upper limit of final concentration set to several nM to several tens of nM). The mixture samples were incubated at a room temperature until the antigen-antibody reaction reached equilibrium. After the reaction reached equilibrium, the percentage of free anti-IL-33 antibody in each sample was analyzed using KinExA3200. The values of Kd were calculated by fitting the plot of percentages of anti-IL-33 antibody not bound to the human IL-33 protein (vertical axis) and concentrations of antigen (horizontal axis) to a theoretical formula, using a KinExA data analysis program (KinExA Pro Software v3.5.3, available from Sapidyne Instruments, Inc.). Beads for capturing the anti-IL-33 antibody were prepared by suspending 50 mg of Azlactone beads (Sapidyne) in 1 mL of coating solution (10 μg/mL human IL-33 protein (ILC0701, available from ATGen Co. Ltd), 50 mM sodium carbonate at pH of 9.6) and incubating the solution at a room temperature for one hour. The antibody for detection used was anti-human F(ab)′2-DyLight649 (Jackson, 309-495-006).

[5] = biological target: T3, full-length human IL-33 protein (human, UniProt O95760 1-270); assay: KinExA in PBS, alkaline-purified IgG
T3 construct: also called Human IL-33 (Full-Length)
T3 sequence: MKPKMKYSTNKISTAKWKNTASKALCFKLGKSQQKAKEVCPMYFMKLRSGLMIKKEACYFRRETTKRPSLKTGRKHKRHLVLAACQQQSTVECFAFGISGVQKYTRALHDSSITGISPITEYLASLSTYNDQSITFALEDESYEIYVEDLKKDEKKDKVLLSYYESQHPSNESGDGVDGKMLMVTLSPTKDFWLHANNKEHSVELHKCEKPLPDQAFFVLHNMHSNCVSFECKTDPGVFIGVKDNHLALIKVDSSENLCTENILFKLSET
Description: as §1

IC50 of inhibition of IL-6 production by HUVEC (alkaline-purified IgG, human IL-33 100 ng/mL) [1]: 0.35 µg/mL
inhibition of IFN-γ production by human PBMC (alkaline-purified IgG 10 ug/mL, IL-33 10 ng/mL, IL-12 10 ng/mL) [1]: 96.9%
inhibition of production of IL-5 and IL-13 by KU-812 cells (alkaline-purified IgG 1 ug/mL; IL-33 3 ng/mL with IL-3 and C5a) [1]: ≥ 50%
percentage of inhibition (%) of IL-6 production by HUVEC (neutral-purified IgG 1 ug/mL, IL-33 100 ng/mL) [1]: 67%
IC50 of inhibition of IL-6 production by HUVEC (alkaline-purified IgG, cynomolgus monkey IL-33 100 ng/mL, not biotinylated) [2]: 0.43 µg/mL
Kd [3]: 0.166 nM
Kd [4]: 0.1 nM
Kd [5]: 0.18 nM
B1: A10-1C04 (IgG) (antibody, V domains shown)
VH: EVQLLESGGGLVQPGGSLRLSCAASGFTFSDYYMNWVRQAPGKGLEWVSSISRYSSYIYYADSVKGRFTISRDNSKNTLYLQMNSLRAEDTAVYYCARDIGGMDVWGQGTLVTVSS
VL: QSVLTQPPSASGTPGQRVTISCTGSSSNIGAVYDVHWYQQLPGTAPKLLIYRNNQRPSGVPDRFSGSKSGTSASLAISGLRSEDEADYYCQTYDSSRWVFGGGTKLTVL
notes: tested as neutral-purified and as alkaline-purified antibody; also called V1; IGN1
